Experimental data from patent publication US20240209100A1 (DIAGONAL THERAPEUTICS, published 2024).

B1: DGL245 (bispecific antibody, V domains shown)
V domain 1: EVQLVESGGGLVQPGGSLRLSCAASGFTLDYYTIGWFRQAPGKEREGVSCISSSGGSTNYADYVKGRFTISRDNAKNTVSLQMNSLKPEDTAVYYCAAESLIPLVETMCVMSVDDYDYWGQGTQVTVSS
V domain 2: QLQLVESGGGLVQAGGSLRLSCAASRSITFSHNVMGWYRQAPGKQRELVASIGSGGSTNYVDSVKGRATISRDNAKKTVYLQMNSLKPEDTAVYYCGVVVGVYRGSLGQGTQVTVSS
B2: DGL247 (bispecific antibody, V domains shown)
V domain 1: QVQLVESGGGSVQAGDSLRLSCAGSGRTFSSYVLGWFRQAPGKEREFVASISWSGDGTYYADSVKGRFTISRDNAENMVYLQMNSLKPEDTAVYYCAADGTTALAMSRLDASTYDFDYWGQGTQVTVSS
V domain 2: QLQLVESGGGLVQAGGSLRLSCAASRSITFSHNVMGWYRQAPGKQRELVASIGSGGSTNYVDSVKGRATISRDNAKKTVYLQMNSLKPEDTAVYYCGVVVGVYRGSLGQGTQVTVSS
B3: DGL248 (bispecific antibody, V domains shown)
V domain 1: QLQLVESGGGLVQPGGSLRLSCAASGFTLDYYAISWFRQVPGKEREGVSCISSNGGSTAYADSVKGRFTISRDNTKNTAYLQMNSLKPEDTAIYYCAASARTIQAMCQRSNFPTRYDYWGQGTQVTVSS
V domain 2: QLQLVESGGGLVQAGGSLRLSCAASRSITFSHNVMGWYRQAPGKQRELVASIGSGGSTNYVDSVKGRATISRDNAKKTVYLQMNSLKPEDTAVYYCGVVVGVYRGSLGQGTQVTVSS
B4: DGL249 (bispecific antibody, V domains shown)
V domain 1: QVQLVESGGGLVQPGGSLRLSCTASGSDLHHYAIGWFRQAPGKEREGVSCISTTGAGTNYADSVKGRFTISRDNAKNTVYLQMDSLKPEETAVYYCAADGPSAIAGCVRTVASMYRYWGQGAQVTVSS
V domain 2: QLQLVESGGGLVQAGGSLRLSCAASRSITFSHNVMGWYRQAPGKQRELVASIGSGGSTNYVDSVKGRATISRDNAKKTVYLQMNSLKPEDTAVYYCGVVVGVYRGSLGQGTQVTVSS
B5: DGL250 (bispecific antibody, V domains shown)
V domain 1: QVQLVESGGGLVQAGGSLRLSCAASGRTFSKHAMGWFRQAPGKEREFVAAIDWSGGSTYYADSVKGRFTISRDNAKNTVYLQMDSLKPEDTAVYYCAADSYTDYAQLWLPELESEYDYWGQGTQVTVSS
V domain 2: QLQLVESGGGLVQPGGSLRLSCAAPGRIFGLNAMGWYRQAPGKQRELVASITTGGSTNYADSGKGRFTLSRSNAQNTVYRQMNSLQPEDTAVYYCNAKRGLNLNYWGQGTQVTVSS
B6: DGL251 (bispecific antibody, V domains shown)
V domain 1: QVQLVESGGGLVQAGGSLRLSCAASGRTFSKHAMGWFRQAPGKEREFVAAIDWSGGSTYYADSVKGRFTISRDNAKNTVYLQMDSLKPEDTAVYYCAADSYTDYAQLWLPELESEYDYWGQGTQVTVSS
V domain 2: EVQLVESGGGLVQTGGSLRLSCVASETITDTFRMGWYRQAPGQQRELVAAITHTSETTYGDSVTGRFTISGDTAKNMVHLQMNSLKPEDTGVYYCNIRAWRRPDYWGQGTQVTVSS
B7: DGL252 (bispecific antibody, V domains shown)
V domain 1: QVQLVESGGGLVQAGGSLRLSCAASGRTFSKHAMGWFRQAPGKEREFVAAIDWSGGSTYYADSVKGRFTISRDNAKNTVYLQMDSLKPEDTAVYYCAADSYTDYAQLWLPELESEYDYWGQGTQVTVSS
V domain 2: QVQLQESGGGLVQAGGSLRLSCAASASIFSRYAIGWYRQAPGKQRDLVAAITSGGTTNYADSVKGRFTISTDNAKNTVYLQMNSLKPEDTAVYSCAAGDSRANYYWGQGTQVTVSS
B8: DGL253 (bispecific antibody, V domains shown)
V domain 1: QVQLVESGGGLVQAGGSLRLSCAASGRTFSKHAMGWFRQAPGKEREFVAAIDWSGGSTYYADSVKGRFTISRDNAKNTVYLQMDSLKPEDTAVYYCAADSYTDYAQLWLPELESEYDYWGQGTQVTVSS
V domain 2: QVQLQESGGGLVQAGGSPRLSCAVSGTAFNINNFMGWYRQAPGKQRELVATITGSSTTNYASSVKGRFTISRDSAKNTVYLQMNSLKPEDTAVYYCNLRRGGWYNYWGQGTQVTVSS
B9: DGL254 (bispecific antibody, V domains shown)
V domain 1: QVQLVESGGGLVQAGGSLRLSCAASGRTFSKHAMGWFRQAPGKEREFVAAIDWSGGSTYYADSVKGRFTISRDNAKNTVYLQMDSLKPEDTAVYYCAADSYTDYAQLWLPELESEYDYWGQGTQVTVSS
V domain 2: QVQLVESGGGLVQAGGSLRLSCAASESIFSFVAMGWYRQAPGKQRELVVKISSGGSTNYADSVKGRFTISRDNAKNTVYLEMNSLKFEDTGVYYCNAVRPNGMDYWGKGTLVTVSS
B10: DGL255 (bispecific antibody, V domains shown)
V domain 1: QVQLVESGGGLVQAGGSLRLSCAASGRTFSKHAMGWFRQAPGKEREFVAAIDWSGGSTYYADSVKGRFTISRDNAKNTVYLQMDSLKPEDTAVYYCAADSYTDYAQLWLPELESEYDYWGQGTQVTVSS
V domain 2: QVQLVESGGGLVQPGGSLRLSCAASRITFSIYDMGWYRQAPGKQRELVASITRRGSTNYADSTKGRFTISRDNGKNTMYLQGNSLKPEDTAVYYCNARDILGRDYWGQGTQVTVSS
B11: DGL256 (bispecific antibody, V domains shown)
V domain 1: QVQLVESGGGLVQPGGSLRLSCTASGSDLHHYAIGWFRQAPGKEREGVSCISTTGAGTNYADSVKGRFTISRDNAKNTVYLQMDSLKPEETAVYYCAADGPSAIAGCVRTVASMYRYWGQGAQVTVSS
V domain 2: QVQLVESGGGLVQPGGSLRLSCAASRITFSIYDMGWYRQAPGKQRELVASITRRGSTNYADSTKGRFTISRDNGKNTMYLQGNSLKPEDTAVYYCNARDILGRDYWGQGTQVTVSS
B12: DGL293 (bispecific antibody, V domains shown)
V domain 1: QVQLVESGGGLVQAGGSLRLSCAASGRTFSSYDMGWFRQAPGKEREFVAALRWSGGSTSYADSVKGRFTISRDNAKNTVYLHMNSLKPEDTAVYYCAATLETDSGTYWADYWGQGTQVTVSS
V domain 2: QVQLVESGGDLVLPGGSLKLSCEASGSISSRNSMAWYRRAPGKQRELVAAISSISSGGRTDYADFVKGRFTIFRDTAKNMVYLQMNNLKPEDTAVYDCDDPIRVASLAYDDWGQGTQVTVSS
B13: DGL294 (bispecific antibody, V domains shown)
V domain 1: EVQLVESGGGLVQPGGSLRLSCAASGSIFSINAMGWYRQAPGKQREVVATSTGGGMTNYADSVKGRFTISRDNAKNTVYLQMNSLKPEDTAVYYCNADKDPFFPGDYWGQGTQVTVSS
V domain 2: QVQLVESGGDLVLPGGSLKLSCEASGSISSRNSMAWYRRAPGKQRELVAAISSISSGGRTDYADFVKGRFTIFRDTAKNMVYLQMNNLKPEDTAVYDCDDPIRVASLAYDDWGQGTQVTVSS
B14: DGL295 (bispecific antibody, V domains shown)
V domain 1: QVQLQESGGGLVQPGGSARLSCVASGIIFNDYHMGWYRQAPGKQRDLVAGITAGGSTTYADSVKGRFTISRDNAKHTVYLQMNNLSPEDTAVYYCNTFYNAILDWGKGTLVTVSS
V domain 2: QVQLVESGGDLVLPGGSLKLSCEASGSISSRNSMAWYRRAPGKQRELVAAISSISSGGRTDYADFVKGRFTIFRDTAKNMVYLQMNNLKPEDTAVYDCDDPIRVASLAYDDWGQGTQVTVSS
B15: DGL296 (bispecific antibody, V domains shown)
V domain 1: QVQLVESGGGLVQAGGSLRLSCAASGRTFSKHAMGWFRQAPGKEREFVAAIDWSGGSTYYADSVKGRFTISRDNAKNTVYLQMDSLKPEDTAVYYCAADSYTDYAQLWLPELESEYDYWGQGTQVTVSS
V domain 2: QVQLVESGGDLVLPGGSLKLSCEASGSISSRNSMAWYRRAPGKQRELVAAISSISSGGRTDYADFVKGRFTIFRDTAKNMVYLQMNNLKPEDTAVYDCDDPIRVASLAYDDWGQGTQVTVSS
B16: DGL297 (bispecific antibody, V domains shown)
V domain 1: QVQLVESGGGLVQAGGSLRLSCAASGRTFSSYTMGWFRQAPGKEREFVAAISWSAGRTYYADSVKGRFTISRDNAKNTVYLQMNSLKPEDTAVYFCAAEEAPDWAPIDCSGYGCLSLYDYWGQGTQVTVSS
V domain 2: QVQLVESGGDLVLPGGSLKLSCEASGSISSRNSMAWYRRAPGKQRELVAAISSISSGGRTDYADFVKGRFTIFRDTAKNMVYLQMNNLKPEDTAVYDCDDPIRVASLAYDDWGQGTQVTVSS

These binders were tested against T1, IL-18 receptor (IL-18Rα/IL-18Rβ) overexpressed on HEK-Blue IL-18 cells (Homo sapiens (Human), UniProt Q13478 19-541; O95256 20-599) (assay: cell-based or functional assay).
T1 sequence 1: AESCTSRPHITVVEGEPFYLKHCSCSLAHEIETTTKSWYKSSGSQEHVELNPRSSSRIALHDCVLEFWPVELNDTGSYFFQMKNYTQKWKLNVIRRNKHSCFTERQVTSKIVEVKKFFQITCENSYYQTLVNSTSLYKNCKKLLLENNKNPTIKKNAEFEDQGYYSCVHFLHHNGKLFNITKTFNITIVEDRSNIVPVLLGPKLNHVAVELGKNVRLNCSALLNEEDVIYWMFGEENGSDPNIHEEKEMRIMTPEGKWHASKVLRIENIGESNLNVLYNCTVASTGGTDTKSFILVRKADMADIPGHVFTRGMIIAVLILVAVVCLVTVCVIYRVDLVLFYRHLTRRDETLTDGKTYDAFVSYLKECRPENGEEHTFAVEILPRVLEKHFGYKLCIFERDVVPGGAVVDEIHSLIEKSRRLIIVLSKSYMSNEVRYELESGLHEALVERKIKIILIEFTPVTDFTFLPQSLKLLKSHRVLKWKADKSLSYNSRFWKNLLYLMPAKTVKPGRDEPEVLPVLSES
T1 sequence 2: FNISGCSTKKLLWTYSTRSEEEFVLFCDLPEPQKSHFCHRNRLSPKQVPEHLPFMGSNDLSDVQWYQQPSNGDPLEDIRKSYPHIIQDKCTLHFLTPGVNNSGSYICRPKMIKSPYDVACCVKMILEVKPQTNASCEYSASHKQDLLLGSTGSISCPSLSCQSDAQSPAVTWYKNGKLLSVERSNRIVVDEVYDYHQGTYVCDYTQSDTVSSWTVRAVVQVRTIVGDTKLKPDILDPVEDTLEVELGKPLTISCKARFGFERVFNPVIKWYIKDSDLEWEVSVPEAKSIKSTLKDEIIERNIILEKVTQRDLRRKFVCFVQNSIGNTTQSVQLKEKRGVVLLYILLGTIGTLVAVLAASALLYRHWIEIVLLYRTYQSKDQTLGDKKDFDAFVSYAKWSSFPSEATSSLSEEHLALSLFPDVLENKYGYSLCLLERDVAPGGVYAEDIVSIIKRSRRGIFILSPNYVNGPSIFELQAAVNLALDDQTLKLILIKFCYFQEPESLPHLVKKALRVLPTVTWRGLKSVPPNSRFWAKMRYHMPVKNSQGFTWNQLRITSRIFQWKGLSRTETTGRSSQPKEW
In the case of B1, the “HEK-Blue IL-18: Abs 405” value is reported as 2.1 Abs and the “HEK-Blue IL-18: Fold over Background” value is reported as 8.6 fold.
For B2, the “HEK-Blue IL-18: Abs 405” value was 0.53 Abs and the “HEK-Blue IL-18: Fold over Background” value was 2.2 fold.
For B3, the “HEK-Blue IL-18: Abs 405” value was 0.44 Abs and the “HEK-Blue IL-18: Fold over Background” value was 1.8 fold.
B4 was tested, and the “HEK-Blue IL-18: Abs 405” value was 0.12 Abs and the “HEK-Blue IL-18: Fold over Background” value was 0.5 fold.
For B5, the “HEK-Blue IL-18: Abs 405” value was 0.49 Abs and the “HEK-Blue IL-18: Fold over Background” value was 2 fold.
In the case of B6, the “HEK-Blue IL-18: Abs 405” value is reported as 0.31 Abs and the “HEK-Blue IL-18: Fold over Background” value is reported as 1.3 fold.
For B7, the “HEK-Blue IL-18: Abs 405” value was 0.32 Abs and the “HEK-Blue IL-18: Fold over Background” value was 1.3 fold.
With B8 the “HEK-Blue IL-18: Abs 405” value was 0.29 Abs and the “HEK-Blue IL-18: Fold over Background” value was 1.2 fold.
For B9, the “HEK-Blue IL-18: Abs 405” value was 0.3 Abs and the “HEK-Blue IL-18: Fold over Background” value was 1.2 fold.
With B10 the “HEK-Blue IL-18: Abs 405” value was 0.32 Abs and the “HEK-Blue IL-18: Fold over Background” value was 1.3 fold.
For B11, the “HEK-Blue IL-18: Abs 405” value was 0.42 Abs and the “HEK-Blue IL-18: Fold over Background” value was 1.7 fold.
B12 was tested, and the “HEK-Blue IL-18: Abs 405” value was 2.83 Abs and the “HEK-Blue IL-18: Fold over Background” value was 12.3 fold.
For B13, the “HEK-Blue IL-18: Abs 405” value was 0.86 Abs and the “HEK-Blue IL-18: Fold over Background” value was 3.7 fold.
In the case of B14, the “HEK-Blue IL-18: Abs 405” value is reported as 0.46 Abs and the “HEK-Blue IL-18: Fold over Background” value is reported as 2 fold.
For B15, the “HEK-Blue IL-18: Abs 405” value was 0.66 Abs and the “HEK-Blue IL-18: Fold over Background” value was 2.9 fold.
For B16, the “HEK-Blue IL-18: Abs 405” value was 0.63 Abs and the “HEK-Blue IL-18: Fold over Background” value was 2.7 fold.
